Earlier results as cited in US20140213990A1, “COMPOSITIONS AND METHODS FOR TREATING SURFACE WOUNDS” (priority 2013, published 2014).

Columns and labels:
[1] = Phase III clinical trials
diabetic foot ulcers = conditions: at 20 weeks of treatment

Question: With Becaplermin as the substance, how does the “patients in whom cancer appeared” value [1] read?
Answer: 80%

Question: What about the “closure (healing) rate for diabetic foot ulcers” value (diabetic foot ulcers) of the same substance?
Answer: 44%
